According to the DeepSol protein solubility set:

Assay: soluble on expression in E. coli; label from the status in PepcDB or PDB records

Soluble on expression in E. coli, soluble:
SLHELSIVESLIELCEENALNNKAYNVQEIYVKIGRLSGIEVDLFKRCFETFKENSNICKNAKLFIELAPLEILCLKCDQTSILEENVFKCPKCQSIEYKIIQGEDLHLMRLVMK
MSLRSLTHIAKIELPPVRRVTYVKHYSIQPANLEFNAEGTPVSRDFDDVYFSNDNGLEETRYVFLGGNQLEARFPEHPHPLFVVAESGFGTGLNFLTLWQAFDQFREAHPQAQLQRLHFISFEKFPLTRADLALAHQHWPELAPWAEQLQAQWPMPLPGCHRLLLDEGRVTLDLWFGDINELISQLDDSLNQKVDAWFLDGFAPAKNPDMWTQNLFNAMARLARPGGTLATFTSAGFVRRGLQEAGFTMQKRKGFGRKREMLCGVMEQTLPLPCSTPWFNRTGSSKREVAIIGGGIASALLSLALLRRGWQVTLYCADEAPALGASGNRQGALYPLLSKHDEALNRFFSNGFTFARRLYDSLPVKFDHDWCGVTQLGWDEKSQHKIAQMLSMDLPEELAVAVEANAVEQITGVTTNCSGITYPQGGWLCPAELTRNVLELAQQQGLQIYYQYQLQDLSRKDDCWLLTFAGDQQATHSVVVLANGHQISRFSQTSSLPVYSVAGQVSHIPTTPELAKLKQVLCYDGYLTPQNPANQHHCIGASYHRGSEETAYSEDNQQQNRQRLIDCFPHAQWAKTVDVSKKEARCGVRCATRDHLPMVGNVPDYEATLVEYASLAEQKDKAVSAPVFDDLFMFAALGSRGLCSAPLCAEILAAQMSDEPIPMDASTLAALNPNRLWVRKLLKGKAVKAGEGHHHHHH
GSHMSLSNKLTLDKLDVKGKRVVMRVDFNVPMKNNQITNNQRIKAAVPSIKFCLDNGAKSVVLMSHLGRPDGVPMPDKYSLEPVAVELKSLLGKDVLFLKDCVGPEVEKACANPAAGSVILLENLRFHVEEEGKGKDASGNKVKAEPAKIEAFRASLSKLGDVYVNDAFGTAHRAHSSMVGVNLPQKAGGFLMKKELNYFAKALESPERPFLAILGGAKVADKIQLINNMLDKVNEMIIGGGMAFTFLKVLNNMEIGTSLFDEEGAKIVKDLMSKAEKNGVKITLPVDFVTADKFDENAKTGQATVASGIPAGWMGLDCGPESSKKYAEAVTRAKQIVWNGPVGVFEWEAFARGTKALMDEVVKATSRGCITIIGGGDTATCCAKWNTEDKVSHVSTGGGASLELLEGKVLPGVDALSNI

Soluble on expression in E. coli, not soluble:
MGSDKIHHHHHHMKLKFLGGAEEVGRLGVKITDKDTSVIVDYGVIPEKPPQYPLPPEPVDAMFITHSHLDHIGAVPVYYHKGEPDLYATQMTLNTMKPLLRDALKVTNIEGYPAMFNEDDINSALANMRPARYFESIEVGNMVATPYPAGHIPGSTMWKFEDGISVTVTGDVNTIDTYLINGAKPIKTDVLIIESTYAGKNHESREDVRKRFRDSVKEVIDSGGKVIMPAFAVGRTQELIMTIADMGYDVAVDGMGNDISTIYLNTPGFLRSKKEFLRALSKVRIIKGRNMRENAIRSDIIISTSGMLDGGPVLGYIQKLLEDEKSAIFVTGYQVEGTNGRSLLETGTLTIAGVTVKPKMRVEFFDMSAHAGHDELVNFIKAIDPKKIVLCHGDHRENLLPDLEGYDVLLPYNGKEYEI
MSRLEAWAYLSRVFEGPSRSLQKLLETESDVEKIAWGIKKREAWLGPILFETASRYSVSLEQEDLTTIKNLGGRLVTPDDDEWPREKFETAFGFAASGTSSLVRSYQSDAVAPHALWVRGAPLSTTVDRSVAIVGTRAMSHYGKSATSMLAAGIADHHWTIVSGGALGVDTVAHTEALQRQKPTVAVCARGLDAPYPRKNAELLRSIVETGCLVSEYAPGLTPHRHRFLTRNRLVAALSQGTVVVEAAWRSGALNTLSWASALGRVAMAVPGPVTNTGSLGCHERIRNKEAELVCSAEEILALVGTLGEFDPNGQYELQFAADPIQSLSRNEMRVFDSLDANPHTTDTVAAAAGIPIGLCVHILRDLEKKQLVMREGAHWHRC
MSKATFDPTRYNKSNNEPFNQVLDKHLSRRNFVKSGLGLGAMTAFAGMGLTGCGSDSSSSPIPVDPVPPLPPTKSSAKLNFTSVKGARLNAVVVPEGYSAQVLAPWGTPLNAKAAPWKADGSNTADDQANSVGMHHDGMHFFPLNQAGDDGLLCINHEYIDEIALHPNGPTVDATTGLRTIVDEVRKEINAHGVSVVRIKLTNNQWEVVYNDKHNRRFTGATVMDIAGPLAYSPLLETRYSPDGSQARGTLNNCGNGYTPWGTYLTCEENWPEYFVNRSTLTRDQIRIGISKTSSRYGWDDLAGQDEERLDEFSRFDVTPKGVSARDDYRNEANGHGYIVEIDPYNPTSRAIKRTALGRFRHEGCTFGKLSEGQPVVFYSGHDARFEYLYKFVSAAPWNPQDANSSNRLEIGDKYMNEGTLYAAKFNENGVGAWLPLTLDSQTTDGKTLGNSFASLADIILNTAGAADLLGATPMDRPEWCAVDPFTGSVYLTLTNNSKRTEANPANPRLKNNFGHIIRWDEADKETEFTWDIFVFGSPSDGNAETNLSGLTDLNQFASPDGLAFDKRGILWVQTDNGAEEVAEETNDQMLAIVPSTLLDSANKQTSVTAKNQMELKRFFVGPNDCEVTGFAISPDYKTVFANIQHPGNWPYSNNAAEVTPTGVVLRPRAATVVIRKLDGKEVAVLEHHHHHH
KQEVSGQVIYLNRGKSFFAFIKEYLEKETGYKKGVKWNRIALDEVEIITSEMSQARKENIKEAFLDGAVKIIIGTATIREGIDLQRKGTVIYNCYPDWNPTDIRQLEGRIWRQGNE
MASGDFRLCDVVLDDSIGRSTPDVEHERAVAIFDLIEENTFEPAGHDGGPYRLHISLVDAKLVFAIKTEDDKDVSTHILSLTPFRRIIKDYFLICESYYEAIRSSTPSQIEAIDMGRRGIHNDGSQTLMDRLSGKIKVDFDTARRLFTLVCVLYWRG
MIRAVHSAAIVLLVFSYMAEFSGAASGGYAPASVGTQPVGTSFRDRLADGSPGPVMVVIPPGRFRMGAIFGGGDPDEKPVHEVSIPRAFAIGAYEVTFAEYDRFCEATGREKPKDGRRWFGPLSRNWGRGNKPAMNVSWDDAVAYVKWLSDQTGHRYRLPSEAEWEYAARGGKDTPYWWGGTVGQNKANCKGCGSRWDKKITAPVGSFAPNPYGMFDTAGNVWEWCVDTWHESYDGAPADGSPWIGGEDSRRVQRGGSFGSKPRYIRSSARGRGAQDGRYVYLGFRVVRELLEHHHHHH
MPLVSVVMPVYNSAATLGAAVRSVLTQTHGDLELLVTDDQSSDGSMDLLREFAAQDERVLPRSSPERGGAGRARNLAIERARGDYVAFLDSDDMWLPEKTEKQLAFAAEGTAPLTFTSYFKMDADHDGESTDWVPNGRVIRAREHVDYRAMLVQDHIGALTAMYDRNVLGTRLMPEMRKRQDYALWLSIMRDGADARGLAEPLAVYRAHQAGSLSSNKLSLVEYNWALYREHENLSVPRATRALAGAVWQSLRNSRILEHHHHHH
MAHHHHHHMLKCVSRVFLGAKTVPLNPHVPFKLHTAGRDDLPPIPTTATYEPEKIKENLAMMIRIRRVEALADQSYKLKKIRGFCHLCIGQEAIPVGMENVLSRGDPVVTGYRDHGLFMTRGGTIEELFAELFGREGGCSKGKGGSMHMYRVKENFYGGNGIVGAQAPLGAGLAWRYALENRDKPSNVAVTFYGDGAANQGQVFEAMNIAALQRIPVIFCCENNHYGMGTREDRAAYQPQMYRRGDYIPGLRVDGMDVLAVQEGTRWAKEWCLAGKGPVVLEMDSYRYMGHSMSDPDSQYRTKNDIQEVRRTRDCIEKMKEFVVSEGIMTVEEIKQMEKDVKKEVDKELPPAEKQAITPLKELFTDIYCGEQYEHRTTQGTVYAKP
MKLKKLQIEPTTFCTLDCEYCHRKSIPPQDLPLEVLDRVNGVAKEYVIYGYGEPLLYPDFFKRIEGFDGKVVISTNGMLDSDILDLADKVGVSIDVNDKFRKGLEVEKALEVLRKLGERGIAEVVVTKDNLELLPAFFERIAEHGSGMLATNVVASNPAIYEQGVYFECSRITVEKVLGLDESILVEAIKDCSRGGGEALRRYKHLLKEVYSKGYSINLLAIFGRKGRVETAFKAEGVFEMLRDLAGDYGVELIEPSFFGDSKARECPYRDSAFLRVDGKISSCMSFAYTHTEYVDGHYKKVEKFCPGNVLKEDIDDVIGKMAEFERVRADMENFPWCADCPYVEGCWYAETNVDCYANLPSCSECLYSSGIAKCLLGD
MSTNIFLHLPTTISTERTILRKTSFADATTLFDIWSDNDVAQFMNIEKFSTILQAEEMIQAIENEPNACRYTIFTMDNSLKAIGSLGINDINKNNQTIEIGYELAKSHWRQGLMFEILTTFLNTTKAHLPYKTITAKVLPENIASIKLLTKLGFELISTGQELDLHSGKICEISNYQLILN
